Assay results from publication PMC11044963, “Probing the CRL4^DCAF12 interactions with MAGEA3 and CCT5 di-Glu C-terminal degrons” (PNAS Nexus, 2024).

Assays:
[1] = molecular target: FITC-labeled MAGEA3 C-terminal degron peptide; assay: fluorescence polarisation; direct binding; protein titrated from 4 µM in two-fold steps against 20 nM FITC peptide; 20 mM Tris pH 7.5, 150 mM NaCl, 5% glycerol, 0.5 mM TCEP, 0.01% Triton; 45 min at room temperature
[2] = molecular target: FITC-labeled CCT5 C-terminal degron peptide (human); assay: as above

## DDB1–DCAF12–DDA1 complex (from UniProt Q5T6F0 1-453; Q5T6F0 1-453; Q9BW61 1-102)
[1]
  Kd: 60 nM
[2]
  Kd: 130 nM
